In patent US20060234944:

What was measured:
[1] = molecular target: T1, substrate EEISEVNLAAEF
T1 chain: EEISEVNLAAEF

[2] = molecular target: T2, substrate RWHHEVNLAAEF
T2 chain: RWHHEVNLAAEF

[3] = molecular target: T3, substrate EVNLAVEFWHDR
T3 chain: EVNLAVEFWHDR

B1: memapsin 2 (spontaneously activated promemapsin 2-T1; amino acids 43-456 and 45-456 of SEQ ID NO: 8) (protein)
chain: LRLPRETDEEPEEPGRRGSFVEMVDNLRGKSGQGYYVEMTVGSPPQTLNILVDTGSSNFAVGAAPHPFLHRYYQRQLSSTYRDLRKGVYVPYTQGKWEGELGTDLVSIPHGPNVTVRANIAAITESDKFFINGSNWEGILGLAYAEIARPDDSLEPFFDSLVKQTHVPNLFSLQLCGAGFPLNQSEVLASVGGSMIIGGIDHSLYTGSLWYTPIRREWYYEVIIVRVEINGQDLKMDCKEYNYDKSIVDSGTTNLRLPKKVFEAAVKSIKAASSTEKFPDGFWLGEQLVCWQAGTTPWNIFPVISLYLMGEVTNQSFRITILPQQYLRPVEDVATSQDDCYKFAISQSSTGTVMGAVIMEGFYVVFDRARKRIGFAVSACHVHDEFRTAAVEGPFVTLDMEDCGYNIPQTDEST
rate of catalysis in competitive cleavage assay (MALDI-TOF), relative to EVNLAAEFWHDR [1]: statistically identical rates of catalysis for the upstream EEIS (SEQ ID NO: 52) and the downstream WHDR (SEQ ID NO: 29) sequence additions
rate of catalysis in competitive cleavage assay (MALDI-TOF), relative to EVNLAAEFWHDR [2]: a 60-fold decrease in the rate of catalysis for the upstream RWHH (SEQ ID NO: 53) sequence addition when compared to the downstream WHDR (SEQ ID NO: 29) sequence addition
Km [3]: Km of 83±8.9 mM
